The values below come from article PMC11538602, “Substrate binding and catalytic mechanism of UDP-α-D-galactofuranose: β-galactofuranoside β-(1→5)-galactofuranosyltransferase GfsA” (PNAS Nexus, 2024).

Test [1] concerns the target GfsA (UDP-α-D-galactofuranose: β-galactofuranoside β-(1→5)-galactofuranosyltransferase) from Aspergillus fumigatus, soluble catalytic domain, residues 43–537 (Aspergillus fumigatus). The test is described as follows: SEC; gel filtration chromatography of GfsA purified with Ni-agarose; broad single peak, estimated 120 kDa against 58 kDa for the monomer.
In another test the target is T1, GfsA (Aspergillus fumigatus, UniProt B0YDN6).
T1 construct: gene AFUB_096220; soluble catalytic domain, residues 43-537 without transmembrane segment; N-terminal 6xHis-tag (pET15b); E. coli Rosetta-gami B (DE3); 58 kDa; homodimer (120 kDa by gel filtration); GT31
Put plainly: X-ray crystal structure, […] A. The test is classed as binding. To be noted: crystal with UDP and Mn2+ soaked with 50 mM pNP-Galf, pNP group not resolved, only Galf modelled; acceptor site, D335 and D360.

One may read the stoichiometry N as the number of molecules, sites or subunits per partner or assembly. Take “GfsA (UDP-α-D-galactofuranose: β-galactofuranoside β-(1→5)-galactofuranosyltransferase) from Aspergillus fumigatus, soluble catalytic domain, residues 43–537 (enzyme)”: the stoichiometry N in test [1] is 2. With `OC[C@@H](O)[C@@H]1O[C@@H](O)[C@H](O)[C@H]1O` [Galf], the “X-ray crystal structure, 2.37 A” value on GfsA is “Galf, was present within the depression and hydrogen bonded with D335 and D360”.
